Test results as given in patent publication US7332318B2, “Calcium-independent phospholipases A2, genes thereof and promoter of the same” (Japan Science and Technology Agency, priority 2001, dated 2008).

B1: cPLA2α: cytosolic phospholipase A2 (cPLA2α) of 85 kDa, the conventional full-length enzyme (protein, UniProt P47712 1-749, looked up)
chain: MSFIDPYQHIIVEHQYSHKFTVVVLRATKVTKGAFGDMLDTPDPYVELFISTTPDSRKRTRHFNNDINPVWNETFEFILDPNQENVLEITLMDANYVMDETLGTATFTVSSMKVGEKKEVPFIFNQVTEMVLEMSLEVCSCPDLRFSMALCDQEKTFRQQRKEHIRESMKKLLGPKNSEGLHSARDVPVVAILGSGGGFRAMVGFSGVMKALYESGILDCATYVAGLSGSTWYMSTLYSHPDFPEKGPEEINEELMKNVSHNPLLLLTPQKVKRYVESLWKKKSSGQPVTFTDIFGMLIGETLIHNRMNTTLSSLKEKVNTAQCPLPLFTCLHVKPDVSELMFADWVEFSPYEIGMAKYGTFMAPDLFGSKFFMGTVVKKYEENPLHFLMGVWGSAFSILFNRVLGVSGSQSRGSTMEEELENITTKHIVSNDSSDSDDESHEPKGTENEDAGSDYQSDNQASWIHRMIMALVSDSALFNTREGRAGKVHNFMLGLNLNTSYPLSPLSDFATQDSFDDDELDAAVADPDEFERIYEPLDVKSKKIHVVDSGLTFNLPYPLILRPQRGVDLIISFDFSARPSDSSPPFKELLLAEKWAKMNKLPFPKIDPYVFDREGLKECYVFKPKNPDMEKDCPTIIHFVLANINFRKYRAPGVPRETEEEKEIADFDIFDDPESPFSTFNFQYPNQAFKRLHDLMHFNTLNNIDVIKEAMVESIEYRRQNPSRCSVSLSNVEARRFFNKEFLSKPKA
modifications: full-length
notes: cytosolic phospholipase A2 (cPLA2α) of 85 kDa, the conventional full-length enzyme

How the values were obtained:
[1] = system: KIDS cPLA2 mRNA in hippocampal dentate gyrus; experiment: In situ hybridization of brain slices after kainic acid stimulation; assay type: in vivo, Wister rat; settings: rat brain, riboprobe C, with or without kainic acid stimulation
Procedure: Brain of Wister rat of 3 weeks age stimulated by kainic acid was fixed by 4% paraformaldehyde and then a frozen slice was prepared. Each of the radio-labeled riboprobes B, C and D was subjected to a hybridization reaction with the frozen slice and the labeled image of the slice from each probe was confirmed to be same. Then, frozen slice of the brain was prepared again using riboprobe C with or without a kainic acid stimulation and an expression pattern of KIDS cPLA2 mRNA was investigated.

[2] = system: KIDS cPLA2 protein in hippocampal dentate gyrus; experiment: Immunohistochemical dyeing of brain slices after kainic acid stimulation; assay type: in vivo, cPLA2a knockout mouse, C57/Black 6J mouse, Wister rat; settings: anti-KIDS cPLA2 stump antibody
Procedure: Brains of cPLA2a knockout mouse and C57/Black 6J mouse of 6-10 weeks age and Wister rat of 3 weeks age stimulated by kainic acid were fixed with 4% paraformaldehyde and then frozen slices were prepared. Immunoreaction of an anti-KIDS cPLA2-specific stump antibody with the brain slice was carried out overnight at 4° C. and expression of KIDS cPLA2 protein was confirmed by a secondary antibody labeled with gold colloid.

nerve stem cells = experiment: Expression of KIDS cPLA2 in nerve stem cells after stimulation; assay type: cell-based; settings: kainic acid 10 μM, probe P19-P27, FIG. 14
Procedure: Then expression of KIDS cPLA 2 of the present invention using nerve stem cells by means of stimulation by kainic acid (10 μM), by kainic acid and CNQX (10 μM KA and 20 μM CNQX) and by glutamic acid (50 μM) was investigated.
The result is shown in FIG. 14 which is a picture as a substitute for a drawing. In FIG. 14, the probe used is P90-P27 of 252 bp (the said sequence is a sequence of a moiety which is common in the full-length cPLA2) in the upper column, P19-P27 of 290 bp (the said sequence contains a sequence specific to KIDS cPLA2 of the present invention) in the second column and G3 PDH and nestin in the lower two columns as controls.
The lanes in FIG. 14 are control and stimulations by kainic acid (KA (10 μM)), by kainic acid and CNQX (KA (10 μM)+CNQX (20 μM)) and by glutamic acid (Glu (50 μM)) from the left side.

[3] = Enzymatic (phospholipase A2) activity of KIDS cPLA2 and cPLA2α on radiolabelled PC substrates; assay type: biochemical; settings: difference from the control
Description: Then enzymatic activity of cPLA2α and KIDS cPLA2 of the present invention were investigated. There were used 1-Pam-2-[^14C] arachidonoyl-PC (black dots (●) in FIG. 7), 1-Pam-2-[^14C]Iinoleoyl-PC (black triangles (▴) in FIG. 7), 1-Pam-2-[^14C]oleoyl-PC (black squares (▪) in FIG. 7) and 1-Pam-2-[^14C]palmitoyl-PC (asterisks (*) in FIG. 7) as the substrates for testing the enzymatic activity of each of them. In FIG. 7, the left side is that for KIDS cPLA2 of the present invention while the right side is that for cPLA2α.
Incidentally, the phospholipase A2 activity is given in terms of the difference from the control.

[4] = Calcium dependency of enzymatic activity (EDTA-Ca); assay type: biochemical; settings: substrate 1-Pam-2-[^14C]arachidonoyl-PC
Description: Then, calcium dependency of cPLA2α and KIDS cPLA2 of the present invention on enzymatic activity was investigated using 1-Pam-2-[^14C]arachidonoyl-PC as a substrate. EDTA-Ca was used as a calcium source.
The solid lines in FIG. 8 are the case of KIDS cPLA of the present invention while the broken lines therein are the case of cPLA2α. In each of them, the black dots (●) are the data in the absence of EDTA-Ca while the open circles (◯) are those in the presence of EDTA-Ca.
It is noted that, in the case of KIDS cPLA2 of the present invention, an activity of around 40% is maintained even […] while, in the case of cPLA2α, the activity is reduced to an extent of around 10-15% […].

| Molecule | Expression pattern of KIDS cPLA2 mRNA [1] | Expression of KIDS cPLA2 protein [2] | Expression of KIDS cPLA2 (nerve stem cells) | Phospholipase A2 Activity ([3]; substrate 1-Pam-2-[^14C]arachidonoyl-PC) [pmol/min] | Phospholipase A2 Activity ([3]; substrate 1-Pam-2-[^14C]linoleoyl-PC) [pmol/min] | Phospholipase A2 Activity ([3]; substrate 1-Pam-2-[^14C]oleoyl-PC) [pmol/min] | Phospholipase A2 Activity ([3]; substrate 1-Pam-2-[^14C]palmitoyl-PC) [pmol/min] | Activity maintained in the presence of calcium (relative ratio) ([4]; EDTA-Ca, FIG. 9) | Change of enzymatic activity by the presence of calcium ([4]; with and without EDTA-Ca, FIG. 8) |
| --- | --- | --- | --- | --- | --- | --- | --- | --- | --- |
| C=C(C)[C@H]1CN[C@H](C(=O)O)[C@H]1CC(=O)O [kainic acid] | drastically induced in the hippocampal dentate gyrus | drastically induced in the hippocampal dentate gyrus | specific expression of KIDS cPLA2 of the present invention was confirmed |  |  |  |  |  |  |
| B1 |  |  |  | 24.4 ± 1.4 | 11.9 ± 1.8 | 9.1 ± 1.1 | 9.8 ± 1.7 | 10-15% | sudden reduction in the activity by the presence of calcium |
